From patent US20250161473A1 (GAN AND LEE PHARMACEUTICALS, published 2025)

How the values were obtained:
[1] = target: T1, TROP-2-his (UniProt P09758 27-274); experiment: SPR (Biacore), antibody captured on Protein A chip, TROP-2-his flowed over, 1:1 Langmuir fit
T1 construct: also called antigen TROP-2-his; not shown: his tag
T1 sequence (looked up): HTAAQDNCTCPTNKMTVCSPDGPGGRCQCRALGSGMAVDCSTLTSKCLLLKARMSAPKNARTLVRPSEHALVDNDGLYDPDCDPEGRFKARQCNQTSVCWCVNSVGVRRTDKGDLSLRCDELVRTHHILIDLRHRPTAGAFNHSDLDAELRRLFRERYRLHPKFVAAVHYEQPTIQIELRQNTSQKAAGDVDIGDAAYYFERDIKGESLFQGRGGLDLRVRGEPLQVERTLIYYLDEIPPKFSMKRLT
From the text: (§1) In this test example, the affinity of the TROP-2 antibody and the TROP-2-ADC compound obtained according to the above examples to TROP-2 is detected by means of capturing antibody.
(§2) Use the Sensor Chip Protein A biosensor chip (Cytiva) to capture the antibody (TROP-2 antibody or TROP-2-ADC compound), then flow through the antigen TROP-2-his on the surface of the chip, and use the Biacore K8 instrument (Cytiva) Real-time detection of reaction signals to obtain association and dissociation curves. After the dissociation of each experiment cycle, the chip was washed and regenerated with regeneration buffer. After the experiment, GE Biacore K8 Evaluation version 3.0 software was used to fit the data with the (1:1) Langmuir model to obtain the affinity value.

[2] = target: T1, TROP-2-his; experiment: SPR (Biacore), ADC captured on Protein A chip, TROP-2-his flowed over, 1:1 Langmuir fit
From the text: as §1, §2

[3] = target: T2, human HER3-His antigen (human, UniProt P21860 20-643); experiment: SPR (Biacore 8K), antibody captured on Protein A chip, HER3-His at 0.625-40 nM as analyte
T2 construct: not shown: His tag
Experimental: (§3) The binding ability of naked antibody, HER3-ADC-19, HER3-ADC-20, HER3-ADC-21 to human HER3-His antigen was determined at 7 different concentrations (0.625-40 nM) using protein A biosensor chip.

[4] = target: T2, human HER3-His antigen; experiment: SPR (Biacore 8K), ADC captured on Protein A chip, HER3-His at 0.625-40 nM as analyte
Experimental: as §3

B1: anti-human TROP-2 monoclonal antibody (anti-hRS7 antibody) (antibody, human IgG1, kappa, V domains shown)
VH: QVQLQQSGSELKKPGASVKVSCKASGYTFTNYGMNWVKQAPGQGLKWMGWINTYTGEPTYTDDFKGRFAFSLDTSVSTAYLQISSLKADDTAVYFCARGGFGSSYWYFDVWGQGSLVTVSS
VL: DIQLTQSPSSLSASVGDRVSITCKASQDVSIAVAWYQQKPGKAPKLLIYSASYRYTGVPDRFSGSGSGTDFTLTISSLQPEDFAVYYCQQHYITPLTFGAGTKVEIKR
notes: also called Naked antibody (anti-TROP-2 monoclonal antibody); TROP-2 antibody
Q: For B1, which Kd [1] is on record?
A: Its Kd is 0.318 nM.

B2: TROP-2-ADC-3 (antibody, human IgG1, kappa, V domains shown)
VH: B1 VH
VL: B1 VL
modifications: drug-linker compound 50 coupled to cysteines of the reduced interchain disulfide bonds; positions not given; drug-linker compound 50 (maleimide linker, exatecan derivative) coupled to cysteines of the reduced interchain disulfide bonds; positions not given; DAR 14.74 for the whole antibody
Q: Which Kd [2] does the source give for B2 here?
A: Its Kd is 0.276 nM.

B3: TROP-2-ADC-23 (antibody, human IgG1, kappa, V domains shown)
VH: B1 VH
VL: B1 VL
modifications: drug-linker compound 70 coupled to cysteines of the reduced interchain disulfide bonds; positions not given; drug-linker compound 70 (maleimide linker, exatecan derivative) coupled to cysteines of the reduced interchain disulfide bonds; positions not given; DAR 6.42 for the whole antibody
Q: Which Kd [2] does the source give for B3 here?
A: Its Kd is 0.262 nM.

B4: TROP-2-ADC-19 (antibody, human IgG1, kappa, V domains shown)
VH: B1 VH
VL: B1 VL
modifications: drug-linker compound 66 coupled to cysteines of the reduced interchain disulfide bonds; positions not given; drug-linker compound 66 (maleimide linker, exatecan derivative) coupled to cysteines of the reduced interchain disulfide bonds; positions not given; DAR 4.65 for the whole antibody
Q: B4 was tested. Which Kd [2] did it give?
A: Its Kd is 0.319 nM.

B5: TROP-2-ADC-21 (antibody, human IgG1, kappa, V domains shown)
VH: B1 VH
VL: B1 VL
modifications: drug-linker compound 68 coupled to cysteines of the reduced interchain disulfide bonds; positions not given; drug-linker compound 68 (maleimide linker, exatecan derivative) coupled to cysteines of the reduced interchain disulfide bonds; positions not given; DAR 4.78 for the whole antibody
Q: For B5, which Kd [2] is on record?
A: The Kd was 0.275 nM.

B6: TROP-2-ADC-4 (antibody, human IgG1, kappa, V domains shown)
VH: B1 VH
VL: B1 VL
modifications: drug-linker compound 51 coupled to cysteines of the reduced interchain disulfide bonds; positions not given; drug-linker compound 51 (maleimide linker, exatecan derivative) coupled to cysteines of the reduced interchain disulfide bonds; positions not given; DAR 8.49 for the whole antibody
Q: How did the Kd [2] turn out when B6 was run?
A: The Kd was 0.293 nM.

B7: anti-human HER3 monoclonal antibody (antibody, human IgG1, kappa, V domains shown)
VH: QVQLQQWGAGLLKPSETLSLTCAVYGGSFSGYYWSWIRQPPGKGLEWIGEINHSGSTNYNPSLKSRVTISVETSKNQFSLKLSSVTAADTAVYYCARDKWTWYFDLWGRGTLVTVSS
VL: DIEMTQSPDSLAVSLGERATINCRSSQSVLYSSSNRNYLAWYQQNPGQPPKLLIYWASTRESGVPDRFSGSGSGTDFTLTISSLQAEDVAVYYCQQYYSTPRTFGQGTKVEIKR
notes: also called Naked antibody; HER3 antibody
Q: For B7, which Kd [3] is on record?
A: The Kd was 1.41 nM.

Q: And the koff [3]?
A: Its koff is 0.000363 s⁻¹.

Q: What about the kon [3] of the same binder?
A: The kon was 257000 M⁻¹ s⁻¹.

B8: HER3-ADC-21 (antibody, human IgG1, kappa, V domains shown)
VH: B7 VH
VL: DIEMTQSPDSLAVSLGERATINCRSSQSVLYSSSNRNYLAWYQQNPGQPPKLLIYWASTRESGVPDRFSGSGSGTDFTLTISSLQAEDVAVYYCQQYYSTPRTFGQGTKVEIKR
modifications: drug-linker compound 68 coupled to cysteines of the reduced interchain disulfide bonds; positions not given; drug-linker compound 68 (maleimide linker, exatecan derivative) coupled to cysteines of the reduced interchain disulfide bonds; positions not given; DAR 8.00 for the whole antibody
Q: B8 was tested. Which Kd [4] did it give?
A: The Kd was 2.08 nM.

Q: What about the koff [4] of the same binder?
A: The koff was 0.000451 s⁻¹.

Q: And the kon [4]?
A: Its kon is 217000 M⁻¹ s⁻¹.
